The values below come from publication PMC12102759 (2025).

First the molecules themselves.
B1: TPTE2 peptide 92-107 (Phosphatidylinositol 3,4,5-trisphosphate 3-phosphatase TPTE2), 16-mer library wild type / TLN1 PTB (TLN1 Phosphotyrosine-binding (PTB) domain, residues 309-401) (parent complex)
chain 1: LADLIFTDSKLYIPLE
chain 2: GVSFFLVKEKMKGKNKLVPRLLGITKECVMRVDEKTKEVIQEWNLTNIKRWAASPKSFTLDFGDYQDGYYSVQTTEGEQIAQLIAGYIDIILK

In this test the parent is B1. Nature of the test: proteomic peptide phage display deep mutational scan (ProP-PD DMS): M13 P8 16-mer library selected against immobilised GST-tagged bait for four days (rounds), NGS of the eluted pools per day and pseudo-replica; bait immobilised on MaxiSorp plates (10 µg), library pre-cleared on GST, 2 h binding at 4 °C, five washes; one round per day, days 1-4; value from days 2 and 3.
Regarding chain 1 LADAIFTDSKLYIPLE, the screen value was 0.000153 average fractional NGS count over selection days 2 and 3 (reads of this peptide / all reads for the bait, averaged over ….

With chain 1 LADQIFTDSKLYIPLE, the screen value was 0.000755 average fractional NGS count over selection days 2 and 3 (reads of this peptide / all reads for the bait, averaged over ….

Regarding chain 1 LADTIFTDSKLYIPLE, the screen value was 0.00113 average fractional NGS count over selection days 2 and 3 (reads of this peptide / all reads for the bait, averaged over …. Take chain 1 LADPIFTDSKLYIPLE: the screen value is 0.000281 average fractional NGS count over selection days 2 and 3 (reads of this peptide / all reads for the bait, averaged over …. Take chain 1 LADFIFTDSKLYIPLE: the screen value is 0.000915 average fractional NGS count over selection days 2 and 3 (reads of this peptide / all reads for the bait, averaged over …. As for chain 1 LADGIFTDSKLYIPLE, the figure is 0.000192 average fractional NGS count over selection days 2 and 3 (reads of this peptide / all reads for the bait, averaged over …; as for chain 1 LADLIFWDSKLYIPLE, 0.000447 average fractional NGS count over selection days 2 and 3 (reads of this peptide / all reads for the bait, averaged over …. As for chain 1 LADLIFHDSKLYIPLE, the figure is 0.000516 average fractional NGS count over selection days 2 and 3 (reads of this peptide / all reads for the bait, averaged over …; as for chain 1 LAGLIFTDSKLYIPLE, 0.000214 average fractional NGS count over selection days 2 and 3 (reads of this peptide / all reads for the bait, averaged over …; as for chain 1 LASLIFTDSKLYIPLE, 0.000257 average fractional NGS count over selection days 2 and 3 (reads of this peptide / all reads for the bait, averaged over …. Regarding chain 1 LATLIFTDSKLYIPLE, the screen value is 0.00148 average fractional NGS count over selection days 2 and 3 (reads of this peptide / all reads for the bait, averaged over …. On to chain 1 LADLIFTDSKLYIPVE, for which the screen value was 0.0032 average fractional NGS count over selection days 2 and 3 (reads of this peptide / all reads for the bait, averaged over …. The value for chain 1 LADLIFTDSKLYIPWE was 0.000732 average fractional NGS count over selection days 2 and 3 (reads of this peptide / all reads for the bait, averaged over …; that for chain 1 LADLIFTDSKLYIPQE was 0.00188 average fractional NGS count over selection days 2 and 3 (reads of this peptide / all reads for the bait, averaged over …. For the variant chain 1 LADLIFTDSKLYIPNE, the screen value is 0.000216 average fractional NGS count over selection days 2 and 3 (reads of this peptide / all reads for the bait, averaged over …. Turning to chain 1 LADLIFTDSKLFIPLE, the screen value was 0.00012 average fractional NGS count over selection days 2 and 3 (reads of this peptide / all reads for the bait, averaged over …. Regarding chain 1 LADLIFTDSKLWIPLE, the screen value is 0.000296 average fractional NGS count over selection days 2 and 3 (reads of this peptide / all reads for the bait, averaged over ….

Consider chain 1 LKDLIFTDSKLYIPLE, for which the screen value was 0.000711 average fractional NGS count over selection days 2 and 3 (reads of this peptide / all reads for the bait, averaged over …. Regarding chain 1 LGDLIFTDSKLYIPLE, the screen value is 0.00214 average fractional NGS count over selection days 2 and 3 (reads of this peptide / all reads for the bait, averaged over ….

With chain 1 LDDLIFTDSKLYIPLE, the screen value was 0.0012 average fractional NGS count over selection days 2 and 3 (reads of this peptide / all reads for the bait, averaged over …. Consider chain 1 LTDLIFTDSKLYIPLE, for which the screen value is 0.00695 average fractional NGS count over selection days 2 and 3 (reads of this peptide / all reads for the bait, averaged over …. In the case of chain 1 LIDLIFTDSKLYIPLE, the screen value was 0.000259 average fractional NGS count over selection days 2 and 3 (reads of this peptide / all reads for the bait, averaged over …. Turning to chain 1 LADLIFTDSFLYIPLE, the screen value is 0.000223 average fractional NGS count over selection days 2 and 3 (reads of this peptide / all reads for the bait, averaged over ….

With chain 1 LADLIFTDSMLYIPLE, the screen value was 0.0107 average fractional NGS count over selection days 2 and 3 (reads of this peptide / all reads for the bait, averaged over …. As for chain 1 LADLIFTDSLLYIPLE, the figure is 0.000166 average fractional NGS count over selection days 2 and 3 (reads of this peptide / all reads for the bait, averaged over …. As for chain 1 LADLIFTDSRLYIPLE, the figure is 0.00219 average fractional NGS count over selection days 2 and 3 (reads of this peptide / all reads for the bait, averaged over …. In the case of chain 1 LADLIFTDSNLYIPLE, the screen value is 0.000537 average fractional NGS count over selection days 2 and 3 (reads of this peptide / all reads for the bait, averaged over …. Take chain 1 LADLIFTDSPLYIPLE: the screen value is 0.000281 average fractional NGS count over selection days 2 and 3 (reads of this peptide / all reads for the bait, averaged over …. As for chain 1 LADLIFTDSELYIPLE, the figure is 0.00277 average fractional NGS count over selection days 2 and 3 (reads of this peptide / all reads for the bait, averaged over …; as for chain 1 LADLIFTDSALYIPLE, 0.0017 average fractional NGS count over selection days 2 and 3 (reads of this peptide / all reads for the bait, averaged over …; as for chain 1 LADLIFTDSYLYIPLE, 0.00128 average fractional NGS count over selection days 2 and 3 (reads of this peptide / all reads for the bait, averaged over ….

In the case of chain 1 LADLIFTDSKVYIPLE, the screen value is 0.00254 average fractional NGS count over selection days 2 and 3 (reads of this peptide / all reads for the bait, averaged over …. On to chain 1 LADLIFTDSKHYIPLE, for which the screen value is 0.000165 average fractional NGS count over selection days 2 and 3 (reads of this peptide / all reads for the bait, averaged over ….

For the variant chain 1 LADLIFTDSKGYIPLE, the screen value is 0.000473 average fractional NGS count over selection days 2 and 3 (reads of this peptide / all reads for the bait, averaged over …. In the case of chain 1 LADLIFTDSKMYIPLE, the screen value is 0.000677 average fractional NGS count over selection days 2 and 3 (reads of this peptide / all reads for the bait, averaged over …. The value for chain 1 LADLDFTDSKLYIPLE was 0.0016 average fractional NGS count over selection days 2 and 3 (reads of this peptide / all reads for the bait, averaged over …; that for chain 1 LADLYFTDSKLYIPLE was 0.00125 average fractional NGS count over selection days 2 and 3 (reads of this peptide / all reads for the bait, averaged over …; that for chain 1 LADLKFTDSKLYIPLE was 0.000454 average fractional NGS count over selection days 2 and 3 (reads of this peptide / all reads for the bait, averaged over …. As for chain 1 LADLRFTDSKLYIPLE, the figure is 0.0019 average fractional NGS count over selection days 2 and 3 (reads of this peptide / all reads for the bait, averaged over ….

As for chain 1 LADLIWTDSKLYIPLE, the screen value is 0.000583 average fractional NGS count over selection days 2 and 3 (reads of this peptide / all reads for the bait, averaged over …. Regarding chain 1 LADLIFTDSKLYIGLE, the screen value was 0.000463 average fractional NGS count over selection days 2 and 3 (reads of this peptide / all reads for the bait, averaged over …. The value for chain 1 LADLIFTPSKLYIPLE was 0.000129 average fractional NGS count over selection days 2 and 3 (reads of this peptide / all reads for the bait, averaged over …. For the variant chain 1 LADLIFTNSKLYIPLE, the screen value is 0.00152 average fractional NGS count over selection days 2 and 3 (reads of this peptide / all reads for the bait, averaged over …. As for chain 1 LADLIFTYSKLYIPLE, the figure is 0.000841 average fractional NGS count over selection days 2 and 3 (reads of this peptide / all reads for the bait, averaged over …; as for chain 1 LADLIFTDSKLYIPLA, 0.00143 average fractional NGS count over selection days 2 and 3 (reads of this peptide / all reads for the bait, averaged over …; as for chain 1 LADLIFTDSKLYIPLF, 0.000466 average fractional NGS count over selection days 2 and 3 (reads of this peptide / all reads for the bait, averaged over …. In the case of chain 1 LADLIFTDSKLYIPLH, the screen value is 0.00501 average fractional NGS count over selection days 2 and 3 (reads of this peptide / all reads for the bait, averaged over ….

On to chain 1 LADLIFTDSKLYIPLG, for which the screen value is 0.000982 average fractional NGS count over selection days 2 and 3 (reads of this peptide / all reads for the bait, averaged over ….

Turning to chain 1 LADLIFTDSKLYIPLV, the screen value was 0.0105 average fractional NGS count over selection days 2 and 3 (reads of this peptide / all reads for the bait, averaged over …. The value for chain 1 LADLIFTDSKLYIPLL was 0.000229 average fractional NGS count over selection days 2 and 3 (reads of this peptide / all reads for the bait, averaged over …; that for chain 1 LADLIFTDSKLYIPLS was 0.000917 average fractional NGS count over selection days 2 and 3 (reads of this peptide / all reads for the bait, averaged over …. On to chain 1 LADLIFTDSKLYIPLQ, for which the screen value was 0.000507 average fractional NGS count over selection days 2 and 3 (reads of this peptide / all reads for the bait, averaged over …. For the variant chain 1 LADLIFTDSKLYLPLE, the screen value is 0.000788 average fractional NGS count over selection days 2 and 3 (reads of this peptide / all reads for the bait, averaged over …. The value for chain 1 LADLIFTDSKLYRPLE was 0.00065 average fractional NGS count over selection days 2 and 3 (reads of this peptide / all reads for the bait, averaged over …; that for chain 1 LADLIFTDSKLYTPLE was 0.000348 average fractional NGS count over selection days 2 and 3 (reads of this peptide / all reads for the bait, averaged over …; that for chain 1 LADLIFTDSKLYFPLE was 0.000135 average fractional NGS count over selection days 2 and 3 (reads of this peptide / all reads for the bait, averaged over ….
